Experimental data: patent US20140044713A1 (KONINKLIJKE NEDERLANDSE AKADEMIE VAN WETENSCHAPPEN, published 2014)
One block for each binder: values may come before it.

Experiments:
[1] = target: T1, Frz6 (endogenous, LS174T cells) (human, UniProt O60353 19-706); experiment: TAP (anti-FLAG, anti-HA) + mass spectrometry, bait stably expressed in LS174T cells, Exp 7
T1 construct: whole, on cells
T1 sequence (looked up): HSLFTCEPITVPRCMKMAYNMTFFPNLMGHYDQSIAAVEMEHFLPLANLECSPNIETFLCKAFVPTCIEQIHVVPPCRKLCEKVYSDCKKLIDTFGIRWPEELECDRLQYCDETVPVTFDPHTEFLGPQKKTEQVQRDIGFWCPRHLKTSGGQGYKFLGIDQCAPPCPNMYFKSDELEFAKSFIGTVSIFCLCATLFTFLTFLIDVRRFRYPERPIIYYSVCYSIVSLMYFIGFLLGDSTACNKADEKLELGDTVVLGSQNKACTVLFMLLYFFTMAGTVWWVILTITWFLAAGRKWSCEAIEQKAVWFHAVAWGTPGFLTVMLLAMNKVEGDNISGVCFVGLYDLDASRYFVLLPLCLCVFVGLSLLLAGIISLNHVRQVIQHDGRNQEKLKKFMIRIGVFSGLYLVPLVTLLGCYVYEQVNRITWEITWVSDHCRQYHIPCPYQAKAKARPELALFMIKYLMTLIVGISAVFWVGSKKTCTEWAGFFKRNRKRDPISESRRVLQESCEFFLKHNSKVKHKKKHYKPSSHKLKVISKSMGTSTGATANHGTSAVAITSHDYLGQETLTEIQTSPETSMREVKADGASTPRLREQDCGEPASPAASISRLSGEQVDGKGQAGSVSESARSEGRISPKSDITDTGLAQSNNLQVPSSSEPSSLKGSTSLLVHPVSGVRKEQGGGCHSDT
Procedure: (§1) Left panel (Exps 1-7): HEK293T cells were transiently transfected, and LS174T cells were stably, transfected with the indicated tagged proteins. Right panel (Exps 8-9): HEK293T cells were incubated with the indicated tagged soluble proteins at 1 μg/ml. Sequential immunoprecipitation was performed by anti-FLAG and anti-HA antibodies and the associated complexes were analysed by mass spectrometry. Number of assigned spectra, number of unique peptides and the MASCOT Protein Score are given for selected identified proteins.

[2] = target: T2, Frz7 (endogenous, LS174T cells) (human, UniProt O75084 33-574); experiment: as above
T2 construct: whole, on cells
Procedure: as §1

Rspo1-Fc fusion protein = target: T3, Rspo1-Fc fusion protein (Homo sapiens (Human), UniProt Q2MKA7 21-263, limits assumed); experiment: HEK293T cells transfected with the tagged Lgr, incubated with Rspo1-Fc, protein G immunoprecipitation, anti-FLAG Western blot
T3 construct: also called Rspondin1 IgFc fusion protein; not shown: Fc (IgFc) part
Description: FIG. 7A: Rspondin1 binds to Lgr4, Lgr5 and Lgr6. […] Bottom: Input of tagged proteins.

[3] = target: T2, Frz7 (endogenous, LS174T cells); experiment: TAP (anti-FLAG, anti-HA) + mass spectrometry, bait stably expressed in LS174T cells, Exp 3-6
Procedure: as §1

T3 sequence (Q2MKA7 21-263 limits assumed): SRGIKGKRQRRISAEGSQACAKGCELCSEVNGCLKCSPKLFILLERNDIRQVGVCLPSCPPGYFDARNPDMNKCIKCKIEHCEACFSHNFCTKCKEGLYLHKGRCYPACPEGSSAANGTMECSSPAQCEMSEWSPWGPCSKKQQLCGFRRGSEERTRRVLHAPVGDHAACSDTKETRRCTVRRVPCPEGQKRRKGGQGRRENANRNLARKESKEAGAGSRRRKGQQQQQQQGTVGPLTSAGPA

binding result [1]: no binding | binding result [2]: no binding
B1: tagged Frizzled5 (Frz5) (receptor, UniProt Q13467 27-585, looked up)
chain: ASKAPVCQEITVPMCRGIGYNLTHMPNQFNHDTQDEAGLEVHQFWPLVEIQCSPDLRFFLCSMYTPICLPDYHKPLPPCRSVCERAKAGCSPLMRQYGFAWPERMSCDRLPVLGRDAEVLCMDYNRSEATTAPPRPFPAKPTLPGPPGAPASGGECPAGGPFVCKCREPFVPILKESHPLYNKVRTGQVPNCAVPCYQPSFSADERTFATFWIGLWSVLCFISTSTTVATFLIDMERFRYPERPIIFLSACYLCVSLGFLVRLVVGHASVACSREHNHIHYETTGPALCTIVFLLVYFFGMASSIWWVILSLTWFLAAGMKWGNEAIAGYAQYFHLAAWLIPSVKSITALALSSVDGDPVAGICYVGNQNLNSLRGFVLGPLVLYLLVGTLFLLAGFVSLFRIRSVIKQGGTKTDKLEKLMIRIGIFTLLYTVPASIVVACYLYEQHYRESWEAALTCACPGHDTGQPRAKPEYWVLMLKYFMCLVVGITSGVWIWSGKTVESWRRFTSRCCCRPRRGHKSGGAMAAGDYPEASAALTGRTGPPGPAATYHKQVSLSHV
notes: whole, on cells; also called double-tagged Frizzled5; Frz5 bait; not shown: FLAG/HA tag

binding result (Rspo1-Fc fusion protein): no binding (tested: ~1 µg/ml)
B2: Lgr1 (receptor, not shown: small tags and cut ends)
chain: CHHRICHCSNRVFLCQESKVTEIPSDLPRNAIELRFVLTKLRVIQKGAFSGFGDLEKIEISQNDVLEVIEADVFSNLPKLHEIRIEKANNLLYINPEAFQNLPNLQYLLISNTGIKHLPDVHKIHSLQKVLLDIQDNINIHTIERNSFVGLSFESVILWLNKNGIQEIHNCAFNGTQLDELNLSDNNNLEELPNDVFHGASGPVILDISRTRIHSLPSYGLENLKKLRARSTYNLKKLPTLEKLVALMEASLTYPSHCCAFANWRRQISELHPICNKSILRQEVDYMTQARGQRSSLAEDNESSYSRGFDMTYTEFDYDLCNEVVDVTCSPKPDAFNPCEDIMGYNILRVLIWFISILAITGNIIVLVILTTSQYKLTVPRFLMCNLAFADLCIGIYLLLIASVDIHTKSQYHNYAIDWQTGAGCDAAGFFTVFASELSVYTLTAITLERWHTITHAMQLDCKVQLRHAASVMVMGWIFAFAAALFPIFGISSYMKVSICLPMDIDSPLSQLYVMSLLVLNVLAFVVICGCYIHIYLTVRNPNIVSSSSDTRIAKRMAMLIFTDFLCMAPISFFAISASLKVPLITVSKAKILLVLFHPINSCANPFLYAIFTKNFRRDFFILLSKCGCYEMQAQIYRTETSSTVHNTHPRNGHCSSAPRVTSGSTYILVPLSHLAQN
notes: Control lane of the Rspo1-Fc pull-down

binding result [3]: no binding
B3: FLAG/HA-tagged Lgr5 (receptor, human, UniProt O75473 22-907, looked up)
chain: GSSPRSGVLLRGCPTHCHCEPDGRMLLRVDCSDLGLSELPSNLSVFTSYLDLSMNNISQLLPNPLPSLRFLEELRLAGNALTYIPKGAFTGLYSLKVLMLQNNQLRHVPTEALQNLRSLQSLRLDANHISYVPPSCFSGLHSLRHLWLDDNALTEIPVQAFRSLSALQAMTLALNKIHHIPDYAFGNLSSLVVLHLHNNRIHSLGKKCFDGLHSLETLDLNYNNLDEFPTAIRTLSNLKELGFHSNNIRSIPEKAFVGNPSLITIHFYDNPIQFVGRSAFQHLPELRTLTLNGASQITEFPDLTGTANLESLTLTGAQISSLPQTVCNQLPNLQVLDLSYNLLEDLPSFSVCQKLQKIDLRHNEIYEIKVDTFQQLLSLRSLNLAWNKIAIIHPNAFSTLPSLIKLDLSSNLLSSFPITGLHGLTHLKLTGNHALQSLISSENFPELKVIEMPYAYQCCAFGVCENAYKISNQWNKGDNSSMDDLHKKDAGMFQAQDERDLEDFLLDFEEDLKALHSVQCSPSPGPFKPCEHLLDGWLIRIGVWTIAVLALTCNALVTSTVFRSPLYISPIKLLIGVIAAVNMLTGVSSAVLAGVDAFTFGSFARHGAWWENGVGCHVIGFLSIFASESSVFLLTLAALERGFSVKYSAKFETKAPFSSLKVIILLCALLALTMAAVPLLGGSKYGASPLCLPLPFGEPSTMGYMVALILLNSLCFLMMTIAYTKLYCNLDKGDLENIWDCSMVKHIALLLFTNCILNCPVAFLSFSSLINLTFISPEVIKFILLVVVPLPACLNPLLYILFNPHFKEDLVSLRKQTYVWTRSKHPSLMSINSDDVEKQSCDSTQALVTFTSSSITYDLPPSSVPSPAYPVTESCHLSSVAFVPCL
notes: whole, on cells; also called Lgr5 bait; FH-tagged human Lgr5; not shown: FLAG/HA double tag
